# Assay results as given in patent US20110280809.
# B1: GST-Pdia4 (protein)
# chain: VAGAEGPDEDSSNRENAIEDEEEEEEEDDDEEEDDLEVKEENGVLVLNDANFDNFVADKDTVLLEFYAPWCGHCKQFAPEYEKIANILKDKDPPIPVAKIDATSASVLASRFDVSGYPTIKILKKGQAVDYEGSRTQEEIVAKVREVSQPDWTPPPEVTLVLTKENFDEVVNDADIILVEFYAPWCGHCKKLAPEYEKAAKELSKRSPPIPLAKVDATAETDLAKRFDVSGYPTLKIFRKGRPYDYNGPREKYGIVDYMIEQSGPPSKEILTLKQVQEFLKDGDDVIIIGVFKGESDPAYQQYQDAANNLREDYKFHHTFSTEIAKFLKVSQGQLVVMQPEKFQSKYEPRSHMMDVQGSTQDSAIKDFVLKYALPLVGHRKVSNDAKRYTRRPLVVVYYSVDFSFDYRAATQFWRSKVLEVAKDFPEYTFAIADEEDYAGEVKDLGLSESGEDVNAAILDESGKKFAMEPEEFDSDTLREFVTAFKKGKLKPVIKSQPVPKNNKGPVKVVVGKTFDSIVMDPKKDVLIEFYAPWCGHCKQLEPVYNSLAKKYKGQKGLVIAKMDATANDVPSDRYKVEGFPTIYFAPSGDKKNPVKFEGGDRDLEHLSKFIEEHATKLSRTKEEL
# Molecular target: Bovine pancreatic trypsin inhibitor, reduced form, P00974
protein,measurement,value
B1,"disulfide isomerase activity, fraction remaining (%) of the reduced BPTI",GST-Pdia4 showed disulfide isomerase activity as compared to GST protein in redox buffer as evidenced by a decrease in disulfide formation of bovine pancreatic trypsin inhibitor
